Measurements as given in patent US20140271661A1 (Bayer, published 2014).

How the values were obtained:
[1] = molecular target: T1, human antithrombin β complexed with heparin (human ATβH) (human, UniProt P01008 33-464, lacks glycosylation at Asn135 (β glyco-isoform); complexed with heparin); test: cell-based or functional assay
[2] = molecular target: rabbit antithrombin β complexed with heparin (rATβH) (rabbit); test: cell-based or functional assay
[3] = molecular target: cynomolgus antithrombin (ATβH species homolog, in Cyno plasma) (Cyno); test: cell-based or functional assay
[4] = molecular target: T1, human antithrombin β complexed with …; test: panning and screening of human antibody libraries against human ATβ in complex with heparin

T1 sequence (P01008 33-464, one chain of several): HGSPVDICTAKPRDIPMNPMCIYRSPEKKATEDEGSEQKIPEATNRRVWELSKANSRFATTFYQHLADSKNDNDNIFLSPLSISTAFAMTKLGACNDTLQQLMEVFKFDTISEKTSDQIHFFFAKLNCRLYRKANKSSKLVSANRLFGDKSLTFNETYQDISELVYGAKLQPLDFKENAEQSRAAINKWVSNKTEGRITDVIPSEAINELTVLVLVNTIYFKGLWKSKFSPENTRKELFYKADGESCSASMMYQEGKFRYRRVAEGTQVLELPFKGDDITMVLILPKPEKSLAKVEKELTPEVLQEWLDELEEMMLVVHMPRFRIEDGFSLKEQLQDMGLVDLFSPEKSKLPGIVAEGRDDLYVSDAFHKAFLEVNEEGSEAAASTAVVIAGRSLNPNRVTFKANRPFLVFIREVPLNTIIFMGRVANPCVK

EC50, FXa-Activated Clotting Assay, human HEM A plasma [1] | EC50, FXa-Activated Clotting Assay, human normal plasma [1] | binding result [4] | Binder | further results
4.7 nM | 10.5 nM |  | TPP2009 hIgG1 (antibody, V domains shown) VH: EVQLLESGGGLVQPGGSLRLSCAASGFTFSAYRMGWVRQAPGKGLEWVSRIYSSGGRTRYADSVKGRFTISRDNSKNTLYLQMNSLRAEDTAVYYCAREKASDLSGSFSEALDYWGQGTLVTVSS VL: AQSVLTQDPAVSVALGQTVRITCQGDSLRSYYASWYQQKPGQAPVLVIYGKNNRPSGIPDRFSGSSSGNTASLTITGAQAEDEADYYCNSRDSSGNHLVFGGGTKLTVLG | EC50, dPT (diluted prothrombin time), human HEM A plasma [1]: 9 nM; EC50, FXa-Activated Clotting Assay, rabbit HEM A plasma [2]: 10.5 nM; EC50, FXa-Activated Clotting Assay, rabbit normal plasma [2]: 25.7 nM; EC50, FXa-Activated Clotting Assay, cyno HEM A plasma [3]: 4.3 nM; EC50, FXa-Activated Clotting Assay, cyno normal plasma [3]: 21.5 nM; EC50, dPT (diluted prothrombin time), cyno HEM A plasma [3]: 13.9 nM
 |  | binds | TPP-2016 hIgG (antibody, V domains shown) VH: EVQLLESGGGLVQPGGSLRLSCAASGFTFSKYRMDWVRQAPGKGLEWVSRIGPSGGKTTYADSVKGRFTISRDNSKNTLYLQMNSLRAEDTAVYYCAREKTSDLSGSYSEALDYWGQGTLVTVSS VL: DIQMTQSPATLSVSPGERATLSCRASQNINRNLAWYQQKPGRAPRLLIHTASTRAPGVPVRITGSGSGTEFTLTISSLEPEDFAVYFCQQYASPPRTFGQGTKVEIKR | 
2.7 nM | 2.4 nM |  | TPP2803 IgG2, Germlined and converted to IgG2 (antibody, V domains shown) VH: EVQLLESGGGLVQPGGSLRLSCAASGFTFSSYRMSWVRQAPGKGLEWVSRIYSSGGRTRYADSVKGRFTISRDNSKNTLYLQMNSLRAEDTAVYYCAREKASDLSGSFSEALDYWGQGTLVTVSS VL: SSELTQDPAVSVALGQTVRITCQGDSLRSYYASWYQQKPGQAPVLVIYGKNNRPSGIPDRFSGSSSGNTASLTITGAQAEDEADYYCNSRDSSGNHLVFGGGTKLTVLG | 
 |  | binds | TPP-2019 hIgG (antibody, V domains shown) VH: EVQLLESGGGLVQPGGSLRLSCAASGFTFSRYAMYWVRQAPGKGLEWVSRISPSGGKTHYADSVKGRFTISRDNSKNTLYLQMNSLRAEDTAVYYCARLSQTGYYPHYHYYGMDVWGQGTTVTVSS VL: DIQMTQSPATLSLSPGERATLSCRASQRVSSSYLTWYQQKPGQAPRLLIYGASSRATGIPDRFSGSGSGTDFTLTISRLEPEDFAVYYCQQYDSTPPLTFGGGTKVEIKR | 
